Tests used:
[1] = target: T1, IL-2Rα-Fc (Acro Biosystems, catalog #ILA-H5251) (UniProt P01589 22-217, limits assumed); assay: SPR (Biacore T200), kinetic; receptor-Fc captured on anti-Fc CM5 chip, IL-2 variant as analyte
T1 construct: Bought reagent; Captured on an anti-Fc chip as SPR ligand; also called CD25; not shown: Fc part of the bought fusion
T1 sequence (looked up): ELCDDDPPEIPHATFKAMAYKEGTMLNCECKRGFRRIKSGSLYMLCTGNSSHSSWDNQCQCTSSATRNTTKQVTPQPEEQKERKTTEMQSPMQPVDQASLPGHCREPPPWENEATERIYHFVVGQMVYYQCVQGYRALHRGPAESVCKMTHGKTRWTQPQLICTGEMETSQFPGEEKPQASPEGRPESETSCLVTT
Protocol: (§1) Anti-Fc polyclonal antibodies were immobilized onto a CM5 chip (GE Life Sciences) using amine coupling chemistry (from Amine Coupling Kit, GE Life Sciences). The immobilization steps were carried out at a flow rate of 25 μL/minute in 1×HBS-EP+ buffer (GE Life Sciences; 10× Stock diluted before use). The sensor surfaces were activated for 7 minutes with a mixture of NHS (0.05 M) and EDC (0.2 M). The anti-Fc antibodies were injected over all four flow cells at a concentration of 25 μg/mL in 10 mM sodium acetate, pH 4.5, for seven minutes. Ethanolamine (1 M, pH 8.5) was injected for seven minutes to block any remaining activated groups.
(§2) Kinetic binding experiments were performed at 25° C. using 1×HBS-EP+ with 0.05% BSA buffer. IL-2Rα-Fc or IL-2Rβ-Fc (Acro Biosystems, catalog #ILA-H5251, ILB-H5253) was injected over the anti-Fc surface at concentrations of 3-10 μg/mL for 12 seconds at a flow rate of 10 μL/minute on flow cells 2, 3 and 4, followed by a buffer wash for 30 seconds at the same flow rate. Kinetic characterization of conjugated or unconjugated aldesleukin or variants was carried out in a range of concentrations from 1 nM-10 μM and one injection of no antigen. After capturing ligand (IL-2Rα-Fc or IL-2Rβ-Fc) on the anti-Fc surface, the analyte (IL-2 variant) was bound for 60 seconds, followed by a 180 second dissociation phase at a flow rate of 50 μL/min. Between each ligand capture and analyte binding cycle, regeneration was carried out using two injections of 10 mM Glycine pH 1.5 for 30 seconds at 30 μL/minute, followed by a 30 second buffer wash step.

[2] = target: T2, IL-2Rβ-Fc (Acro Biosystems, catalog #ILB-H5253) (UniProt P14784 27-239, limits assumed); assay: as above
T2 construct: Bought reagent; Captured on an anti-Fc chip as SPR ligand; also called CD122; not shown: Fc part of the bought fusion
T2 sequence (looked up): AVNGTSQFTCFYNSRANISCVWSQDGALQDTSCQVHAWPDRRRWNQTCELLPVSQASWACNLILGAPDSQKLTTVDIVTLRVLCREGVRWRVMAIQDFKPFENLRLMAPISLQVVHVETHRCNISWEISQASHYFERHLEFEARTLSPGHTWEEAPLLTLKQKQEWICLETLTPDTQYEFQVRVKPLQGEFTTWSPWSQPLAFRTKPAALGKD
Protocol: as §1, §2

[3] = target: T1, IL-2Rα-Fc (Acro Biosystems, catalog …); assay: SPR, kinetic binding to IL-2 receptor
[4] = target: T2, IL-2Rβ-Fc (Acro Biosystems, catalog …); assay: SPR, kinetic binding to IL-2 receptor

B1: Ald-6HIS_Q73pAMF (SP9965), unconjugated (ligand)
chain: MPTSSSTKKTQLQLEHLLLDLQMILNGINNYKNPKLTRMLTFKFYMPKKATELKHLQCLEEELKPLEEVLNLAFSKNFHLRPRDLISNINVIVLELKGSETTFMCEYADETATIVEFLNRWITFSQSIISTLTGGSHHHHHH
modifications: X74 = pAMF (Q73 in SEQ ID NO: 2/3 numbering)
notes: also called Aldesleukin-6His Q73TAG p-azidomethyl-L-phenylalanine
Kd [1]: 0.007 µM
Kd [2]: 0.08 µM

B2: Ald-6HIS_R80pAMF (SP9968) conjugated to DBCO 2 x 10 kDa PEG (PEG2) (ligand)
chain: MPTSSSTKKTQLQLEHLLLDLQMILNGINNYKNPKLTRMLTFKFYMPKKATELKHLQCLEEELKPLEEVLNLAQSKNFHLFPRDLISNINVIVLELKGSETTFMCEYADETATIVEFLNRWITFSQSIISTLTGGSHHHHHH
modifications: X81 = pAMF (R80) conjugated to branched 20 kDa PEG (DBCO 2 x 10 kDa PEG, PEG2)
notes: also called SP9968 PEG2 conjugated
Kd [1]: 0.1 µM

B3: Ald-6HIS_R80pAMF (SP9968), unconjugated (ligand)
chain: MPTSSSTKKTQLQLEHLLLDLQMILNGINNYKNPKLTRMLTFKFYMPKKATELKHLQCLEEELKPLEEVLNLAQSKNFHLFPRDLISNINVIVLELKGSETTFMCEYADETATIVEFLNRWITFSQSIISTLTGGSHHHHHH
modifications: X81 = pAMF (R80 in SEQ ID NO: 2/3 numbering)
notes: also called Aldesleukin-6His R80TAG p-azidomethyl-L-phenylalanine
Kd [1]: 0.02 µM
Kd [2]: 0.4 µM

B4: Ald-6HIS_S4pAMF (SP9954) conjugated to DBCO 2 x 10 kDa PEG (PEG2) (ligand)
chain: MPTSFSTKKTQLQLEHLLLDLQMILNGINNYKNPKLTRMLTFKFYMPKKATELKHLQCLEEELKPLEEVLNLAQSKNFHLRPRDLISNINVIVLELKGSETTFMCEYADETATIVEFLNRWITFSQSIISTLTGGSHHHHHH
modifications: X5 = pAMF (S4) conjugated to branched 20 kDa PEG (DBCO 2 x 10 kDa PEG, PEG2)
notes: also called SP9954 PEG2 conjugated
Kd [1]: 0.1 µM

B5: Ald-6HIS_S4pAMF (SP9954), unconjugated (ligand)
chain: MPTSFSTKKTQLQLEHLLLDLQMILNGINNYKNPKLTRMLTFKFYMPKKATELKHLQCLEEELKPLEEVLNLAQSKNFHLRPRDLISNINVIVLELKGSETTFMCEYADETATIVEFLNRWITFSQSIISTLTGGSHHHHHH
modifications: X5 = p-azidomethyl-L-phenylalanine (pAMF; S4 in SEQ ID NO: 2/3 numbering)
notes: also called Aldesleukin-6His S4TAG p-azidomethyl-L-phenylalanine
Kd [1]: 0.008 µM
Kd [2]: 0.3 µM

B6: Ald-6HIS_V114pAMF (SP9970) conjugated to DBCO 2 x 10 kDa PEG (PEG2) (ligand)
chain: MPTSSSTKKTQLQLEHLLLDLQMILNGINNYKNPKLTRMLTFKFYMPKKATELKHLQCLEEELKPLEEVLNLAQSKNFHLRPRDLISNINVIVLELKGSETTFMCEYADETATIFEFLNRWITFSQSIISTLTGGSHHHHHH
modifications: X115 = pAMF (V114) conjugated to branched 20 kDa PEG (DBCO 2 x 10 kDa PEG, PEG2)
notes: also called SP9970 PEG2 conjugated
Kd [1]: 0.5 µM

B7: Ald-6HIS_V114pAMF (SP9970), unconjugated (ligand)
chain: MPTSSSTKKTQLQLEHLLLDLQMILNGINNYKNPKLTRMLTFKFYMPKKATELKHLQCLEEELKPLEEVLNLAQSKNFHLRPRDLISNINVIVLELKGSETTFMCEYADETATIFEFLNRWITFSQSIISTLTGGSHHHHHH
modifications: X115 = pAMF (V114 in SEQ ID NO: 2/3 numbering)
notes: also called Aldesleukin-6His V114TAG p-azidomethyl-L-phenylalanine
Kd [1]: 0.05 µM
Kd [2]: 0.3 µM

B8: Ald-6HIS_Y30pAMF (SP9957) conjugated to DBCO 2 x 10 kDa PEG (PEG2) (ligand)
chain: MPTSSSTKKTQLQLEHLLLDLQMILNGINNFKNPKLTRMLTFKFYMPKKATELKHLQCLEEELKPLEEVLNLAQSKNFHLRPRDLISNINVIVLELKGSETTFMCEYADETATIVEFLNRWITFSQSIISTLTGGSHHHHHH
modifications: X31 = pAMF (Y30) conjugated to branched 20 kDa PEG (DBCO 2 x 10 kDa PEG, PEG2)
notes: also called SP9957 PEG2 conjugated
Kd [1]: 0.3 µM

B9: Ald-6HIS_Y30pAMF (SP9957), unconjugated (ligand)
chain: MPTSSSTKKTQLQLEHLLLDLQMILNGINNFKNPKLTRMLTFKFYMPKKATELKHLQCLEEELKPLEEVLNLAQSKNFHLRPRDLISNINVIVLELKGSETTFMCEYADETATIVEFLNRWITFSQSIISTLTGGSHHHHHH
modifications: X31 = pAMF (Y30 in SEQ ID NO: 2/3 numbering)
notes: also called Aldesleukin-6His Y30TAG p-azidomethyl-L-phenylalanine
Kd [1]: 0.009 µM
Kd [2]: 0.2 µM

B10: Aldesleukin-6His_S4/K34/F77 pAMF (SP10682) conjugated to SC547 stump (ligand)
chain: MPTSFSTKKTQLQLEHLLLDLQMILNGINNYKNPFLTRMLTFKFYMPKKATELKHLQCLEEELKPLEEVLNLAQSKNFHLRPRDLISNINVIVLELKGSETTFMCEYADETATIVEFLNRWITFSQSIISTLTGGSHHHHHH
modifications: X5, X35, X78 = pAMF (S4, K34, F77), each conjugated to SC547 (conjugation stump)
notes: also called SP10722 stump conjugate
Kd [3]: 0.04 µM
Kd [4]: 3 µM

B11: Aldesleukin-6His_S4/K34/V114 pAMF (SP10683) conjugated to SC547 stump (ligand)
chain: MPTSFSTKKTQLQLEHLLLDLQMILNGINNYKNPFLTRMLTFKFYMPKKATELKHLQCLEEELKPLEEVLNLAQSKNFHLRPRDLISNINVIVLELKGSETTFMCEYADETATIFEFLNRWITFSQSIISTLTGGSHHHHHH
modifications: X5, X35, X115 = pAMF (S4, K34, V114), each conjugated to SC547 (conjugation stump)
notes: also called SP10723 stump conjugate
Kd [3]: 0.3 µM
Kd [4]: 2 µM

— patent publication US20260256927A1 (Merck Sharp & Dohme, published 2026)
